T1: GFP-tagged Kif4A (human), O95239
T1 chain: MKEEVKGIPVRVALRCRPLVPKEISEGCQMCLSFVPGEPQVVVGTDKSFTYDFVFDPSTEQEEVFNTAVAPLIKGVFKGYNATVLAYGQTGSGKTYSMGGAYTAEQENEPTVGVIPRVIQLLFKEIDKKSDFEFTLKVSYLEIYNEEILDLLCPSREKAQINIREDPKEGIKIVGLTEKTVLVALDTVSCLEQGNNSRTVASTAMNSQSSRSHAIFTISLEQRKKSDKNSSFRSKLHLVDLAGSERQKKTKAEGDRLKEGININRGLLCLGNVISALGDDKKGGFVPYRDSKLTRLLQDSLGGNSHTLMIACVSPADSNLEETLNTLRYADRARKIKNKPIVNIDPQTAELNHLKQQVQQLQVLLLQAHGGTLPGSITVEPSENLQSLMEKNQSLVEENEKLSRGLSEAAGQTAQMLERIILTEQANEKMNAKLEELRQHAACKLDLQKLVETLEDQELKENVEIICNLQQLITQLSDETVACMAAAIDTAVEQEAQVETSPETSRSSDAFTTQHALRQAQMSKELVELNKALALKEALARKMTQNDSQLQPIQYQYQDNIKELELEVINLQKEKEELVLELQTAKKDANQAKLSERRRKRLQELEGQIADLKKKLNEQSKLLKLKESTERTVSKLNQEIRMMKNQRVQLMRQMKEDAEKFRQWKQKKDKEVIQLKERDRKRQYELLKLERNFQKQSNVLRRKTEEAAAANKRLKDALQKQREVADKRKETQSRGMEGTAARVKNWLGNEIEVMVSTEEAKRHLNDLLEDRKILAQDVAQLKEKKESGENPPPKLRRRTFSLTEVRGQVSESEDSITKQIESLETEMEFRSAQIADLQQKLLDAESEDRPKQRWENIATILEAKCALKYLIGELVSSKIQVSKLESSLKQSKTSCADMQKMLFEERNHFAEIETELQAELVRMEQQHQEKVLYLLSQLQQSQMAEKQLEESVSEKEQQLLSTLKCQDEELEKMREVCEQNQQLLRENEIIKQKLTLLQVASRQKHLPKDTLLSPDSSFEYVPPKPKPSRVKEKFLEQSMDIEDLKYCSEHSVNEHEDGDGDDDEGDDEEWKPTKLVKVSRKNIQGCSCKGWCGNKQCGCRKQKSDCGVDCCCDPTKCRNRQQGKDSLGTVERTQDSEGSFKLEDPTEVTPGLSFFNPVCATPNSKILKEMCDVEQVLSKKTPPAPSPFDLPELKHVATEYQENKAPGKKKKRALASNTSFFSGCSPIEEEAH

T2: Kif4A-mCherry (human), O95239
T2 chain: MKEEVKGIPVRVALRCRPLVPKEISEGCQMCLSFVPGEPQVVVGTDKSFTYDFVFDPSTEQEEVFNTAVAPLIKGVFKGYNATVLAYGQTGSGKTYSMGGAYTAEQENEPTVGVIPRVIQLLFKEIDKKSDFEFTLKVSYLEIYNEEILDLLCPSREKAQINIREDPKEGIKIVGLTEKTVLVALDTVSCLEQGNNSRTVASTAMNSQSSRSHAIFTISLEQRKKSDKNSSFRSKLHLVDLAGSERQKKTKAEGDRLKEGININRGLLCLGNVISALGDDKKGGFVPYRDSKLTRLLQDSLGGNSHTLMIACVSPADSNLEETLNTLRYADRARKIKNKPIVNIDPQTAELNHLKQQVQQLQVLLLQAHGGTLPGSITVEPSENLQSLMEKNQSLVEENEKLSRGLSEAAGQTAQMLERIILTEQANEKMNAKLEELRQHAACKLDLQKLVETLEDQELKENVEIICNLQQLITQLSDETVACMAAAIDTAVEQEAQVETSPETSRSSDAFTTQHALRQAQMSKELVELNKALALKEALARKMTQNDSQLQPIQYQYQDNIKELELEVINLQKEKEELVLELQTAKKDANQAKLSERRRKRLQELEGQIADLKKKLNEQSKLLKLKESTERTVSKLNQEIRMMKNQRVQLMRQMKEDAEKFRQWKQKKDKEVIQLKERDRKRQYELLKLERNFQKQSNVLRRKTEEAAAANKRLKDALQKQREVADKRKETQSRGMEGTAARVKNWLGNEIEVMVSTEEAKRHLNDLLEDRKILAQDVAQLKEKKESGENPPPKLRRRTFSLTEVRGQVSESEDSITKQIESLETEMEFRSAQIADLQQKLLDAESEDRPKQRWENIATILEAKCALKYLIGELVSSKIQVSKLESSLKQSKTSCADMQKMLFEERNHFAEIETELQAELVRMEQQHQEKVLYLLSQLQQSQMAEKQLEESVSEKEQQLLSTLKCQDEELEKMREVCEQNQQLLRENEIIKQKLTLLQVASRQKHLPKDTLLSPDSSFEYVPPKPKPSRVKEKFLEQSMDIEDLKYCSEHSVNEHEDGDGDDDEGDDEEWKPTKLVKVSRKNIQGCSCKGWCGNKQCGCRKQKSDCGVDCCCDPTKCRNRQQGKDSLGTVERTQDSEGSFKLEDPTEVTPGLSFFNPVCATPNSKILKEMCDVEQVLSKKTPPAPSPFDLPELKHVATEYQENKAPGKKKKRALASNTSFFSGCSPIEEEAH


Assays:
[1] = biological target: T1, GFP-tagged Kif4A (human), O95239; test: single-molecule photobleaching and fluorescence intensity analysis; settings: remark: other sources report otherwise
[2] = biological target: T2, Kif4A-mCherry (human), O95239; test: as above; settings: remark: other sources report otherwise

| stoichiometry N [1] | stoichiometry N [2] | Binder |
| --- | --- | --- |
| 2 | – | GFP-tagged Kif4A, O95239 1-1232 (natural protein) MKEEVKGIPVRVALRCRPLVPKEISEGCQMCLSFVPGEPQVVVGTDKSFTYDFVFDPSTEQEEVFNTAVAPLIKGVFKGYNATVLAYGQTGSGKTYSMGGAYTAEQENEPTVGVIPRVIQLLFKEIDKKSDFEFTLKVSYLEIYNEEILDLLCPSREKAQINIREDPKEGIKIVGLTEKTVLVALDTVSCLEQGNNSRTVASTAMNSQSSRSHAIFTISLEQRKKSDKNSSFRSKLHLVDLAGSERQKKTKAEGDRLKEGININRGLLCLGNVISALGDDKKGGFVPYRDSKLTRLLQDSLGGNSHTLMIACVSPADSNLEETLNTLRYADRARKIKNKPIVNIDPQTAELNHLKQQVQQLQVLLLQAHGGTLPGSITVEPSENLQSLMEKNQSLVEENEKLSRGLSEAAGQTAQMLERIILTEQANEKMNAKLEELRQHAACKLDLQKLVETLEDQELKENVEIICNLQQLITQLSDETVACMAAAIDTAVEQEAQVETSPETSRSSDAFTTQHALRQAQMSKELVELNKALALKEALARKMTQNDSQLQPIQYQYQDNIKELELEVINLQKEKEELVLELQTAKKDANQAKLSERRRKRLQELEGQIADLKKKLNEQSKLLKLKESTERTVSKLNQEIRMMKNQRVQLMRQMKEDAEKFRQWKQKKDKEVIQLKERDRKRQYELLKLERNFQKQSNVLRRKTEEAAAANKRLKDALQKQREVADKRKETQSRGMEGTAARVKNWLGNEIEVMVSTEEAKRHLNDLLEDRKILAQDVAQLKEKKESGENPPPKLRRRTFSLTEVRGQVSESEDSITKQIESLETEMEFRSAQIADLQQKLLDAESEDRPKQRWENIATILEAKCALKYLIGELVSSKIQVSKLESSLKQSKTSCADMQKMLFEERNHFAEIETELQAELVRMEQQHQEKVLYLLSQLQQSQMAEKQLEESVSEKEQQLLSTLKCQDEELEKMREVCEQNQQLLRENEIIKQKLTLLQVASRQKHLPKDTLLSPDSSFEYVPPKPKPSRVKEKFLEQSMDIEDLKYCSEHSVNEHEDGDGDDDEGDDEEWKPTKLVKVSRKNIQGCSCKGWCGNKQCGCRKQKSDCGVDCCCDPTKCRNRQQGKDSLGTVERTQDSEGSFKLEDPTEVTPGLSFFNPVCATPNSKILKEMCDVEQVLSKKTPPAPSPFDLPELKHVATEYQENKAPGKKKKRALASNTSFFSGCSPIEEEAH |
| – | 2 | Kif4A-mCherry, O95239 1-1232 (natural protein) MKEEVKGIPVRVALRCRPLVPKEISEGCQMCLSFVPGEPQVVVGTDKSFTYDFVFDPSTEQEEVFNTAVAPLIKGVFKGYNATVLAYGQTGSGKTYSMGGAYTAEQENEPTVGVIPRVIQLLFKEIDKKSDFEFTLKVSYLEIYNEEILDLLCPSREKAQINIREDPKEGIKIVGLTEKTVLVALDTVSCLEQGNNSRTVASTAMNSQSSRSHAIFTISLEQRKKSDKNSSFRSKLHLVDLAGSERQKKTKAEGDRLKEGININRGLLCLGNVISALGDDKKGGFVPYRDSKLTRLLQDSLGGNSHTLMIACVSPADSNLEETLNTLRYADRARKIKNKPIVNIDPQTAELNHLKQQVQQLQVLLLQAHGGTLPGSITVEPSENLQSLMEKNQSLVEENEKLSRGLSEAAGQTAQMLERIILTEQANEKMNAKLEELRQHAACKLDLQKLVETLEDQELKENVEIICNLQQLITQLSDETVACMAAAIDTAVEQEAQVETSPETSRSSDAFTTQHALRQAQMSKELVELNKALALKEALARKMTQNDSQLQPIQYQYQDNIKELELEVINLQKEKEELVLELQTAKKDANQAKLSERRRKRLQELEGQIADLKKKLNEQSKLLKLKESTERTVSKLNQEIRMMKNQRVQLMRQMKEDAEKFRQWKQKKDKEVIQLKERDRKRQYELLKLERNFQKQSNVLRRKTEEAAAANKRLKDALQKQREVADKRKETQSRGMEGTAARVKNWLGNEIEVMVSTEEAKRHLNDLLEDRKILAQDVAQLKEKKESGENPPPKLRRRTFSLTEVRGQVSESEDSITKQIESLETEMEFRSAQIADLQQKLLDAESEDRPKQRWENIATILEAKCALKYLIGELVSSKIQVSKLESSLKQSKTSCADMQKMLFEERNHFAEIETELQAELVRMEQQHQEKVLYLLSQLQQSQMAEKQLEESVSEKEQQLLSTLKCQDEELEKMREVCEQNQQLLRENEIIKQKLTLLQVASRQKHLPKDTLLSPDSSFEYVPPKPKPSRVKEKFLEQSMDIEDLKYCSEHSVNEHEDGDGDDDEGDDEEWKPTKLVKVSRKNIQGCSCKGWCGNKQCGCRKQKSDCGVDCCCDPTKCRNRQQGKDSLGTVERTQDSEGSFKLEDPTEVTPGLSFFNPVCATPNSKILKEMCDVEQVLSKKTPPAPSPFDLPELKHVATEYQENKAPGKKKKRALASNTSFFSGCSPIEEEAH |
